Consider 4 molecules from patent US20260152546A1.

The target in assay [1] is HIV-1 Env of the BG505 strain (on pseudovirus) (HIV-1).
Assay [2] deals with HIV-1 Env of pseudovirus ZM233.6 (clade C) (HIV-1).
The target of assay [3] is panel of 208 geographically and genetically diverse HIV-1 Env pseudoviruses.
For assay [4], the target named is HIV-1 Env of the BG505 strain (on pseudovirus) (HIV-1). This is another data set of the same source.
For assay [5], the target named is panel of 208 geographically and genetically diverse HIV-1 Env pseudoviruses. This is another data set of the same source.
For assay [6], the target named is HIV-1 Env of pseudovirus ZM233.6 (clade C) (HIV-1). This is another data set of the same source.
For assay [7], the target named is HIV-1 Env of the BG505 strain (on pseudovirus) (HIV-1). This is another data set of the same source.
For assay [8], the target named is HIV-1 Env of pseudovirus CH038.12 (clade BC) (HIV-1).
The target in assay [9] is HIV-1 Env of pseudovirus 246-F3.C10.2 (clade AC) (HIV-1).
For assay [10], the target named is HIV-1 Env of pseudovirus 191821.E6.1 (clade D) (HIV-1).
Assay [11] concerns the target HIV-1 Env of pseudovirus 16936-2.21 (clade C) (HIV-1).
Assay [12] concerns the target HIV-1 Env of pseudovirus Q259.17 (clade A) (HIV-1).
Assay [13] addresses HIV-1 Env of pseudovirus CAP256.206.C9 (clade C) (HIV-1).

Changes are numbered by the printed parent chain. Like-named read-outs stand apart in the source and are kept apart here.

By IC50 is commonly meant the concentration needed to halve the response being measured. Low readings indicate higher potency, high ones lower potency. The term IC80 denotes the concentration at which the effect reaches the 80% level. Lower therefore signals an effect from little substance. As to PGT145 N(100l)D (antibody), in [1], the concentration for half-maximal inhibition (IC50) turned out to be 0.003 µg/mL and the IC80 stood at 0.01 µg/mL.

B1: PG9RSH N(100f)Y (antibody, V domains shown)
VH: ERLVESGGGVVQPGSSLRLSCAASGFDFSRQGMHWVRQAPGQGLEWVAFIKYDGSEKYHADSVWGRLSISRDNSKDTLYLQMNSLRVEDTATYFCVREAGGPDYRNGYYYYDFYDGYYNYHYMDVWGKGTTVTVSS
VL: QSALTQPASVSGSPGQSITISCQGTSNDVGGYESVSWYQQHPGKAPKVVIYDVSKRPSGVSNRFSGSKSGNTASLTISGLQAEDEGDYYCKSLTSRSHRVFGTGTKLTVLG
B1 displayed a fold decrease in IC50 relative to wild type in [2] of 63 fold. In assay [3], this molecule yielded a % of viruses neutralized, IC50 50 µg/mL of 83%; a Mean IC50 (geometric mean, samples with IC50 < 50 µg/mL) of 0.04 µg/mL; a Median IC50 (samples with IC50 < 50 µg/mL) of 0.025 µg/mL. Also, in assay [4], the IC50 came out at 0.009 µg/mL and the IC80 turned out to be 0.023 µg/mL. In assay [5], this molecule showed a % of viruses neutralized, IC80 < 1.0 µg/mL of 62%; a Mean IC80 (geometric mean, samples with IC80 < 50 µg/mL) of 0.106 µg/mL; a Median IC80 (samples with IC80 < 50 µg/mL) of 0.086 µg/mL.

B2: PG9RSH Y(100k)D (antibody, V domains shown)
VH: B1 VH with Y109N, Y114D
VL: B1 VL
In assay [6], B2 registered an IC50 (variant) of 0.001 µg/mL; a fold-change in IC50 between wild type and variant of 110 fold. Moreover, in assay [3], the % of viruses neutralized, IC50 50 µg/mL came out at 87%; the Mean IC50 (geometric mean, samples with IC50 < 50 µg/mL) was determined as 0.035 µg/mL; the Median IC50 (samples with IC50 < 50 µg/mL) was determined as 0.017 µg/mL. In [7], the IC50 stood at 0.004 µg/mL and the concentration for an effect of 80% (IC80) came to 0.01 µg/mL. Moreover, in assay [5], the % of viruses neutralized, IC80 < 1.0 µg/mL is 63%; the Mean IC80 (geometric mean, samples with IC80 < 50 µg/mL) is 0.078 µg/mL; the Median IC80 (samples with IC80 < 50 µg/mL) came to 0.058 µg/mL.

B3: PGT145 (antibody, V domains shown)
VH: QVQLVQSGAEVKKPGSSVKVSCKASGNSFSNHDVHWVRQATGQGLEWMGWMSHEGDKTGLAQKFQGRVTITRDSGASTVYMELRGLTADDTAIYYCLTGSKHRLRDYFLYNEYGPNYEEWGDYLATLDVWGHGTAVTVSS
VL: EVVITQSPLFLPVTPGEAASLSCKCSHSLQHSTGANYLAWYLQRPGQTPRLLIHLATHRASGVPDRFSGSGSGTDFTLKISRVESDDVGTYYCMQGLHSPWTFGQGTKVEIKR
For the molecule B3, the IC50 (WT) in [8] was found to be 46.5 µg/mL. In assay [9], the IC50 (WT) came to 17.4 µg/mL. In [10], this molecule came in with an IC50 (WT) of 3.35 µg/mL. The IC50 (WT) in assay [11] was 5.14 µg/mL. Moreover, in assay [12], the IC50 (WT) is 45 µg/mL. In assay [13], the IC50 (WT) was 3.95 µg/mL. In addition, in [3], the % of viruses neutralized, IC50 50 µg/mL was 75%; the Mean IC50 (geometric mean, samples with IC50 < 50 µg/mL) came out at 0.086 µg/mL; the Median IC50 (samples with IC50 < 50 µg/mL) came out at 0.053 µg/mL. In assay [1], this molecule came in with an IC50 of 0.01 µg/mL and an IC80 of 0.253 µg/mL. In assay [5], this molecule yielded a % of viruses neutralized, IC80 < 1.0 µg/mL of 39%; a Mean IC80 (geometric mean, samples with IC80 < 50 µg/mL) of 0.343 µg/mL; a Median IC80 (samples with IC80 < 50 µg/mL) of 0.276 µg/mL.
